This experiment deals with β-tubulin, endogenous in HeLa cells (human (endogenous in HeLa)) (UniProt P07437). Briefly: native gel or EMSA; soluble native extracts of HeLa cells treated with 5 uM colchicine for 60 min (30 ug) on 6% non-denaturing PAGE, western blot with anti-TBCA; level of the complex relative to control cells (100%). On the technique in general: A gel shift assay detects complexes by their altered migration in electrophoresis.
Sequence of UniProt P07437 (P07437 whole entry): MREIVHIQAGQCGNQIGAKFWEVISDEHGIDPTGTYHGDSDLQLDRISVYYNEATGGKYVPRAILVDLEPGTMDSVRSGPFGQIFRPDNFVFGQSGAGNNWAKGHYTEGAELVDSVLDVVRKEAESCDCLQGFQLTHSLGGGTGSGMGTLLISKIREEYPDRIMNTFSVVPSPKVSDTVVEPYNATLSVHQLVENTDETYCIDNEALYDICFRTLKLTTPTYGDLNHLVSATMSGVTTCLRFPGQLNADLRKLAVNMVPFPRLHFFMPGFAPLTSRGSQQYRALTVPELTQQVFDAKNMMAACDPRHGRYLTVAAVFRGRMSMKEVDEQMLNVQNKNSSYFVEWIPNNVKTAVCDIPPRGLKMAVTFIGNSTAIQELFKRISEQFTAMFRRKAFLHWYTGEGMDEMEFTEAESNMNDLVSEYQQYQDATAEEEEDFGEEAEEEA

B1: tubulin cofactor A (TBCA), endogenous in HeLa cells (natural protein)
chain: MADPRVRQIKIKTGVVKRLVKEKVMYEKEAKQQEEKIEKMRAEDGENYDIKKQAEILQESRMMIPDCQRRLEAAYLDLQRILENEKDLEEAEEYKEARLVLDSVKLEA
With B1, the level of the TBCA/β-tubulin complex, percent of control cells was 18%.

The record behind these values is article PMC8100514.
